Measurements as given in PMC10694607.

What was measured:
Experiment in all cases: BLI
[1] = target: TRIM21–ME2 fusion protein (human) (UniProt P19474)
[2] = target: TRIM21–MH4 fusion protein (human) (UniProt P19474)
[3] = target: TRIM21–MC1 fusion protein (human) (UniProt P19474)

recombinant MALT1 (BPS Bioscience), analyte in BLI (from UniProt Q9UDY8 1-824) (natural protein)
Kd [1]: 753 nM | Kd [2]: 148 nM | Kd [3]: 475 nM
